{
  "source": "patent US20230365714A1",
  "about": "(published 2023)",
  "key": {"[1]": {"molecular_target": "T1, ROR211 shuffle variant (Ig-like domain of ROR2, CRD and kringle domain of ROR1) (human (ROR1/ROR2 chimera), UniProt Q01973 18-937)", "T1 construct": "Transiently expressed on CHO cells", "T1 chain": "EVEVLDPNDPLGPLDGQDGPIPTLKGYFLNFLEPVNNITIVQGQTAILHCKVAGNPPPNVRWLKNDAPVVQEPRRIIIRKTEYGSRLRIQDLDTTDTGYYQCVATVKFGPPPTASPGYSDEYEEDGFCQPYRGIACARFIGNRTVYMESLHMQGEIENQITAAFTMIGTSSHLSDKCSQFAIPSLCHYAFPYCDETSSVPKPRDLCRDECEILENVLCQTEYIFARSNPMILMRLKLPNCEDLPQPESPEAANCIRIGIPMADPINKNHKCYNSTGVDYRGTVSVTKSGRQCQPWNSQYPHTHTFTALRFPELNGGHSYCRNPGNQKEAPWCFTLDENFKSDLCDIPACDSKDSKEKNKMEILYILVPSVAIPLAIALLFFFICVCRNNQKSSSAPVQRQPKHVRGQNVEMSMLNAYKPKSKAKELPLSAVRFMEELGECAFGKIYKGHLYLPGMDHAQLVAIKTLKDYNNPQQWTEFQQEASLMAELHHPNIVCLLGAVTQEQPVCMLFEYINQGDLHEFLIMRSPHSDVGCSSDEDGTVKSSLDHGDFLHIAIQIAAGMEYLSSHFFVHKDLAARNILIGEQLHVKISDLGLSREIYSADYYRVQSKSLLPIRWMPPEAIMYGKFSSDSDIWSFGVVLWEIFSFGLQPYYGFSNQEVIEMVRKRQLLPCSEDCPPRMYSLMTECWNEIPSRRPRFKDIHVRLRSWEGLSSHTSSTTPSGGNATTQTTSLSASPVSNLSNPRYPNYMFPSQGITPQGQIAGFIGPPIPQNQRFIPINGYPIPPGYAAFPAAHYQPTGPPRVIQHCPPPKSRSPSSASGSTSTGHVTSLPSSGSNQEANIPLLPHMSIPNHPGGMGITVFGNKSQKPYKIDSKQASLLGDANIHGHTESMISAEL", "experiment": "cell imaging (CellInsight) on CHO cells expressing the shuffle construct", "protocol": "(§1) Binding was determined […] using a cell imaging screening system (Celllnsight, Thermo Fisher) as per manufacturer's recommendations. In short, CHO cells expressing shuffle constructs ROR112, ROR121, ROR122, ROR211 or ROR221 (3,000 cells/well in 384-well plates) were incubated with antibody or control samples for 18 h at 37° C./5% CO₂, washed and incubated with an Alexa488-labeled detection antibody for 4 h. Hoechst dye was added and fluorescence images were collected, measuring total spot intensity (RFU)."}, "[2]": {"molecular_target": "T2, ROR121 shuffle variant (Ig-like domain of ROR1, CRD of ROR2, kringle domain of ROR1) (human (ROR1/ROR2 chimera), UniProt Q01973 30-937)", "T2 construct": "Transiently expressed on CHO cells", "T2 chain": "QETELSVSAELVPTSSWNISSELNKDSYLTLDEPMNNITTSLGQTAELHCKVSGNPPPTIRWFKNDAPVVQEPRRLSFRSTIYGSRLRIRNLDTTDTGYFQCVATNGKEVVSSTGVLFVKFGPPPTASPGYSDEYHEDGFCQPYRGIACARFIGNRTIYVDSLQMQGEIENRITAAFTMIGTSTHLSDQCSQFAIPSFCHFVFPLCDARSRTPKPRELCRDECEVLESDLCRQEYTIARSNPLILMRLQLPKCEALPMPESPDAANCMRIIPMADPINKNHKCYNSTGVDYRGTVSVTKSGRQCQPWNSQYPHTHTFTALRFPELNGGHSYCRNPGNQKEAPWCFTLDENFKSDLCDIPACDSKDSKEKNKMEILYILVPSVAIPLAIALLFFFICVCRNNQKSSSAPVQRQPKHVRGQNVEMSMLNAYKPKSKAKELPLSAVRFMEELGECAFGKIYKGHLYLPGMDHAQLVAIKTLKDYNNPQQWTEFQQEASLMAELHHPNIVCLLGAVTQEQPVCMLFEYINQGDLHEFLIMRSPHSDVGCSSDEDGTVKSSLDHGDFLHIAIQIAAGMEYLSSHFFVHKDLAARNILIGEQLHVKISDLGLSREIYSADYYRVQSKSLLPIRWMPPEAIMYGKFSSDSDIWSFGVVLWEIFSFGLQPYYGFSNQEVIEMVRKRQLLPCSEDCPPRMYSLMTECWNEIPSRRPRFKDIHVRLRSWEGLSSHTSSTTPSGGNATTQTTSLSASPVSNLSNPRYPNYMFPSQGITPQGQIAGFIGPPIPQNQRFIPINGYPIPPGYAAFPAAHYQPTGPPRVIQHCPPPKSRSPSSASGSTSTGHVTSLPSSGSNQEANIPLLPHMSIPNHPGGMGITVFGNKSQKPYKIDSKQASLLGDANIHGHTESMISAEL", "experiment": "cell imaging (CellInsight) on CHO cells expressing the shuffle construct", "protocol": "as §1"}},
  "data": [
    {"binder": "chIgG1-ROR2-A (antibody, V domains shown, Rabbit-human chimeric antibody; also called ROR2 specific antibody A) VH: QSVEESGGRLVTPGTPLTLTCTVSGFSLSSYSMSWVRQAPGKGLEWIGVIYVNSKTWYANWAKGRFTISKTSTTVDLKITSPTTEDTATYFCARGDAGYTTNSWLWGPGTLVTVSS VL: AFELTQTPASVSEPVGGTVTIKCQASESIDNYCSWYQQKPGQPPKLLIYQAFKLASGVPSRFRGSGSGTQFTLTISDLESDDAATYYCQSYSGISTTAFGGGTEVVVK", "values": [
      {"measurement": "RFU (total spot intensity)", "setting": "[1]", "result": 0, "unit": "RFU"},
      {"measurement": "binding result", "setting": "[1]", "result": "no binding (tested: RFU = 0)"},
      {"measurement": "RFU (total spot intensity)", "setting": "[2]", "result": 0, "unit": "RFU"},
      {"measurement": "binding result", "setting": "[2]", "result": "no binding (tested: RFU = 0)"}
    ]}
  ]
}
